Drawing on patent US5879917, this text covers Kd for 2 substances.

The data set has as its system hUBF (RNA polymerase I transcription factor UBF), HeLa (Homo sapiens). Kind of data set: footprint. The following applies: 14 mM MgCl2, 50 mM KCl, pH 7.9, 30 C.

Consider “G^G-100 (100 bp with single central cisplatin 1,2-d(GpG) intrastrand crosslink)”, for which the Kd (single cis-[Pt(NH3)2]2+ d(GpG) 1,2-intrastrand adduct, central, non-cooperative) was 0.06 nM.

Turning to “human rRNA promoter -208 to +78 (EcoRI-BstEII fragment of pSBr208, 286 bp)”, the Kd (apparent Kd (half-maximal), cooperative, Hill 2.7) was found to be 0.018 nM.
